Here are results for two proteins from patent US20110124560A1 (University of Pennsylvania, published 2011).

Series [1] deals with the molecule itself. The experiment in a line: co-immunoprecipitation from transfected HEK293T cells. From the text:
Full-length FOXP3 E251 and K250 deletion mutants were created by site-directed mutagenesis and subcloned into mammalian expression vectors containing either myc or HA epitope tags at the N-terminus. HEK293T cells were transfected with the myc-tagged wild type FOXP3, myc-tagged FOXP3-delE251, HA-tagged wild type FOXP3, or HA-tagged FOXP3-delE251 vectors as indicated (FIG. 2C). The HA-tagged wild type FOXP3 species was able to homo-associate with the myc-tagged wild type FOXP3, but not with the myc-tagged delE251 mutant, and vice versa (FIG. 2C). […] Thus the leucine zipper domain is essential for FOXP3 homo-association.

Series [2] deals with the molecule itself. The experiment in a line: gel filtration of purified protein, fractions immunoblotted with anti-FOXP3 221D (self-association). An excerpt: FIG. 2A is an image of an immunoblot and a corresponding graph of the relative amounts of FOXP3a detected by the immunoblot. To generate the immunoblot, purified His-tagged FOXP3a was size fractionated by gel filtration, and the fractions were subject to immunoblotting with anti-FOXP3 antibody. ImageJ software (http://rsb.info.nih.gov/ij/) was used for relative quantification of the bands.
Full length FOXP3a (the large isoform) with a 6× His tag was expressed in Sf9 insect cells and purified by Ni-NTA column. The purified His-tagged full length FOXP3a was size fractionated, followed by SDS-PAGE and immunoblotting of the individual fractions with anti-FOXP3 mAb 221D. Purified full length FOXP3a eluted from the gel filtration column as a dominant mixture of monomers, dimers, tetramers, and a detectable amount of oligomeric species (FIG. 2A).

B1: FOXP3 delK250 mutant (other, human, UniProt Q9BZS1 1-431, looked up, not shown: small tags and cut ends)
chain: MPNPRPGKPSAPSLALGPSPGASPSWRAAPKASDLLGARGPGGTFQGRDLRGGAHASSSSLNPMPPSQLQLPTLPLVMVAPSGARLGPLPHLQALLQDRPHFMHQLSTVDAHARTPVLQVHPLESPAMISLTPPTTATGVFSLKARPGLPPGINVASLEWVSREPALLCTFPNPSAPRKDSTLSAVPQSSYPLLANGVCKWPGCEKVFEEPEDFLKHCQADHLLDEKGRAQCLLQREMVQSLEQQLVLEEKLSAMQAHLAGKMALTKASSVASSDKGSCCIVAAGSQGPVVPAWSGPREAPDSLFAVRRHLWGSHGNSTFPEFLHNMDYFKFHNMRPPFTYATLIRWAILEAPEKQRTLNEIYHWFTRMFAFFRNHPATWKNAIRHNLSLHKCFVRVESEKGAVWTVDELEFRKKRSQRPSRCSNPTPGP
notes: Deletion, not a substitution: K250 is removed; also called myc-delK250 FOXP3a; FOXP3 K250 deletion mutant
In the case of B1, in series [1], the binding result was “no binding”.

B2: His-tagged full length FOXP3a (other, human, UniProt Q9BZS1 1-431, looked up)
chain: MPNPRPGKPSAPSLALGPSPGASPSWRAAPKASDLLGARGPGGTFQGRDLRGGAHASSSSLNPMPPSQLQLPTLPLVMVAPSGARLGPLPHLQALLQDRPHFMHQLSTVDAHARTPVLQVHPLESPAMISLTPPTTATGVFSLKARPGLPPGINVASLEWVSREPALLCTFPNPSAPRKDSTLSAVPQSSYPLLANGVCKWPGCEKVFEEPEDFLKHCQADHLLDEKGRAQCLLQREMVQSLEQQLVLEKEKLSAMQAHLAGKMALTKASSVASSDKGSCCIVAAGSQGPVVPAWSGPREAPDSLFAVRRHLWGSHGNSTFPEFLHNMDYFKFHNMRPPFTYATLIRWAILEAPEKQRTLNEIYHWFTRMFAFFRNHPATWKNAIRHNLSLHKCFVRVESEKGAVWTVDELEFRKKRSQRPSRCSNPTPGP
notes: Expressed in Sf9 insect cells, purified by Ni-NTA; also called Full length FOXP3a (the large isoform) with a 6x His tag; purified His-tagged FOXP3a; not shown: 6x His tag
With B2, the binding result in series [2] is on record as “binds”.
